According to article doi:10.1101/2020.10.15.341636 (bioRxiv, 2020):

Columns and labels:
[1] = target: T1, SARS-CoV-2 prefusion S ectodomain (BEI NR52394) (SARS-CoV-2 Wuhan-Hu-1, UniProt P0DTC2, stabilised); assay: BLI
[2] = target: T1, SARS-CoV-2 prefusion S ectodomain (BEI …); assay: cryo-EM structure
[3] = target: T1, SARS-CoV-2 prefusion S ectodomain (BEI …); assay: cell-based or functional assay

Row | Binder | binding result [1] | also measured
1 | mAb 52 IgG (antibody, V domains shown) VH: QVQLVQSGAEVKKPGSSVKVSCKASGYTFTSYGISWVRQAPGQGLEWMGGIIPMFGTTNYAQKFQGRVTITADKSTSTAYMELSSLRSEDTAVYYCARDRGDTIDYWGQGTLVTVSS VL: DIQMTQSPSSLSASVGDRVTITCRASQGISNNLNWYQQKPGKAPKLLIYAASSLESGVPSRFSGSGSGTDFTLTISSLQPEDFATYYCQQGNGFPLTFGPGTKVDIK | binds | 
2 | 52 Multabody (other) VH: QVQLVQSGAEVKKPGSSVKVSCKASGYTFTSYGISWVRQAPGQGLEWMGGIIPMFGTTNYAQKFQGRVTITADKSTSTAYMELSSLRSEDTAVYYCARDRGDTIDYWGQGTLVTVSS VL: DIQMTQSPSSLSASVGDRVTITCRASQGISNNLNWYQQKPGKAPKLLIYAASSLESGVPSRFSGSGSGTDFTLTISSLQPEDFATYYCQQGNGFPLTFGPGTKVDIK | binds | 
3 | mAb 324 IgG (antibody, V domains shown) VH: QVQLVQSGAEVKKPGASVKVSCKASGGTFNNYGISWVRQAPGQGLEWMGWMNPNSGNTGYAQKFQGRVTMTRDTSTSTVYMELSSLRSEDTAVYYCARVGDYGDYIVSPFDLWGRGTLVTVSS VL: DIQMTQSPSSLSASVGDRVTITCRASQSITTYLNWYQQKPGKAPKLLIYDASNLETGVPSRFSGSGSGTDFTLTISSLQPEDFATYYCQQSYSTPPTFGQGTKVEIK | binds | 
4 | 324 Multabody (other) VH: QVQLVQSGAEVKKPGASVKVSCKASGGTFNNYGISWVRQAPGQGLEWMGWMNPNSGNTGYAQKFQGRVTMTRDTSTSTVYMELSSLRSEDTAVYYCARVGDYGDYIVSPFDLWGRGTLVTVSS VL: DIQMTQSPSSLSASVGDRVTITCRASQSITTYLNWYQQKPGKAPKLLIYDASNLETGVPSRFSGSGSGTDFTLTISSLQPEDFATYYCQQSYSTPPTFGQGTKVEIK | binds | 
5 | Fab 324 (Fab, V domains shown) VH: QVQLVQSGAEVKKPGASVKVSCKASGGTFNNYGISWVRQAPGQGLEWMGWMNPNSGNTGYAQKFQGRVTMTRDTSTSTVYMELSSLRSEDTAVYYCARVGDYGDYIVSPFDLWGRGTLVTVSS VL: DIQMTQSPSSLSASVGDRVTITCRASQSITTYLNWYQQKPGKAPKLLIYDASNLETGVPSRFSGSGSGTDFTLTISSLQPEDFATYYCQQSYSTPPTFGQGTKVEIK |  | binding result [2]: binds
6 | mAb 298 IgG (antibody, V domains shown) VH: QVQLVQSGAEVKKPGASVKVSCKASGGTFSTYGISWVRQAPGQGLEWMGWISPNSGGTDLAQKFQGRVTMTRDTSTSTVYMELSSLRSEDTAVYYCASDPRDDIAGGYWGQGTLVTVSS VL: not shown |  | IC50 of neutralization of SARS-CoV-2 pseudovirus (PsV) [3]: ~30 µg/mL
7 | mAb 236 IgG (antibody, V domains shown) VH: QVQLVQSGAEVKKPGASVKVSCKASGGTFTSYGINWVRQAPGQGLEWMGWMNPNSGNTGYAQKFQGRVTMTRDTSTSTVYMELSSLRSEDTAVYYCASRGIQLLPRGMDVWGQGTTVTVSS VL: not shown | binds | 
